# Assay results taken from the supplement of paper PMC9170038.
# How the values were obtained:
# MS2 coat protein [1] = assay: apparent KD of MS2 coat protein, switch ON state; designed switch direction (-1 OFF switch, 1 ON switch): -1; higher = weaker reporter binding; settings: FMN input: 0 or 200 uM; Eterna round: R93 (includes R88 designs)
# Outline: (§1)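 Illumina sequencing clusters were used for on-chip transcription of designed RNA switches. Titration with SNAP-549-labelled MS2 coat protein followed, in twofold steps from 0.7 or 1.5 nM to 3 µM in 100 mM Tris-HCl pH 7.5, 80 mM KCl, 4 mM MgCl2, without or with constant ligand. Apparent KD is each design's median of fits to normalised cluster binding curves.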
# MS2 coat protein [2] = assay: apparent KD of MS2 coat protein, switch OFF state (with FMN for OFF switches, without FMN for ON switches); designed switch direction (-1 OFF switch, 1 ON switch): -1; higher = weaker reporter binding; settings: FMN input: 0 or 200 uM; Eterna round: R93 (includes R88 designs)
# Outline: as §1
Sequence,apparent KD of MS2 coat protein (MS2 coat protein [1]),apparent KD of MS2 coat protein (MS2 coat protein [2])
AGCUAGUCAGGAUAUACGAACAUGUCAAAAGACGUGAAGGAACAUGAGGAUCACCCAUGUAGAAGGGACUAGCA [Diamond 19],19.3 nM,16.5 nM
AAGAAGUGAGGAUAUCGAAGACAGACGAAAAGUCUGUCAAACGAGAAGGCACAUGAGGAUCACCCAUGUGGGAA [What have we learned so far? 64% 3],69.5 nM,169 nM
AAGAAGGAAGGAUAUACAUGAGGAUCACCCAUGUAAAAGAAAGAAAAGGGAAAGAAAAGUAGAAGGUCCAAGAA [Djeserkheperure-setpenre Horemheb],30.4 nM,41.6 nM
AACAUGUAAGGAUAUGCUGCUCGUCACGAAAGUGAUGAGUAGCAGAAGGUACAUGAGGAUCACCCAUGUAAAGA,49 nM,156 nM
AGGAAACAUGAGGAUCACCCAUGUAAGGAUAUGAACGAAAUAAAAUAAAAAUAAAAGUUCAGAAGGUACGAAAA [Mat - Exclusion 1 - Eli mod - D9],22.1 nM,40.3 nM
AACAAGACAGGAUAUACAUGAGGAUCACCCAUGUCACAAUAAAGUAGCGUAACACAAAGUAGAAGGGUCAUGGA [Ruby 8],41.5 nM,50.4 nM
UCCUCACAUGAGGAUCACCCAUGUCAGGAUAUCUCACAGCGAAAGAAUAAAGGCUGCAAGAGAAGGGACACAAA [Raisa],22.7 nM,44.2 nM
CUCUAGUGAGGAUAUACAAGAAAAGAAGAGAAAGAAAAGAAGUAGAAGGCACAUGAGGAUCACCCAUGUAAGAA [EteRNA is fun!],24.7 nM,33.6 nM
CCUGUGUGAGGAUAUGGUGUAAAAAAAAAAAAAUAGCUCCUCCAGAAGGCACAUGAGGAUCACCCAUGUCGUGG [Jolly's Folly 18 - Jieux - Exclusion 4],32.9 nM,65.8 nM
AGGAAGUGAGGAUAUGCAGCAUAUAGUGGACGCUAUAGCAUGUAGAAGGCACAUGAGGAUCACCCAUGUUUAAA [EX4 Malc#38],30.8 nM,34.9 nM
UUUAAGUGAGGAUAUACGAAUAGUAAGUAAGUAUAACAGACGUAGAAGGCACAUGAGGAUCACCCAUGUAAAUA [JR_Exc004_Sub305],24.4 nM,18.6 nM
AGGAUGUCAGGAUAUGCGUAAAGAAUAAAACAAAUAACAACGCAGAAGGGACAUGAGGAUCACCCAUGUUAAGA [May 45],42.3 nM,86 nM
AAAGGUUGAGGAUAUGCGUGGAAAAAGUGUAUUCAAAAAAAACAUGAGGAUCACCCAUGUAGAAGGCGACCAAA [MS2 Riboswitches On Chip Exclusion 2 wbt3],61.9 nM,163 nM
AGCUAGUCAGGAUAUGCAUGAAAAAAAAAAAAAAAAAAAAAACAUGAGGAUCACCCAUGUAGAAGGGACUAGCA [Starry Exclusion 2 (jandersonlee round 1 mod)],126 nM,212 nM
AUAGUACAUGAGGAUCACCCAUGUCAGGAUAUCGGAUAUGACAUGAAAAACAUGUUAACGAGAAGGGACUAUAA [EX1 Malc#19],26.2 nM,36.6 nM
AAAGGGUCAGGAUAUGUACGAACAACAAAACAAAUAACGAUACAGAAGGGACAUGAGGAUCACCCAUGUAUAAA [May 74],55.8 nM,70.6 nM
AAAAAGGGAGGAUAUGCAUACACACAAAAAAAAAAAAAGGGACAUGAGGAUCACCCAUGUAGAAGGCCCAAAAA [Dora Explored 5 - Jieux - Exclusion 2],29.9 nM,25.1 nM
CCAAAGUGAGGAUAUACGCGAACAAAAAAAAAAAAGAAAGCGUAGAAGGCACAUGAGGAUCACCCAUGUCCAGG [Alfred 64% 1],41 nM,99.3 nM
GCUUGGGAAGGAUAUACAUGAGGAUCACCCAUGUGAGAGAAAAAAGUGAGAAAGAAAAGUAGAAGGUCCUGAGG [salish99-ex3-108],71.2 nM,152 nM
CACGUACAUGAGGAUCACCCAUGUUAGGAUAUGCCGAAAAAAAAAAAAAAAAAAAUCAGCAGAAGGAACGAAAC [Bilbo Confounded 19 - Jieux - Exclusion 1],40.2 nM,36 nM
AAAAAGUGAGGAUAUGUCAAAAGUCACAAAAGUGACAAAAGACAGAAGGCACAUGAGGAUCACCCAUGUGAAAG [Mat - Exaclusion 4 - Eli mod - D53],28.9 nM,37.6 nM
CUCUAGUAAGGAUAUGGAAGAAAAGAAAAGAAAGAAAAGAACCAGAAGGUACAUGAGGAUCACCCAUGUAAGAA [EteRNA is fun!],48.9 nM,23.4 nM
AACAGGACAGGAUAUACAUGAGGAUCACCCAUGUAGGAAACAAGCAGAGUACCAAAAAGUAGAAGGGUCAUGGA [Ruby 30],38.8 nM,63.3 nM
